This is an account of results in publication PMC9804626 (Molecular Microbiology, 2022).

Holding throughout (assay): co-IP
Assay [1] has as its target MpgA‐F (Streptococcus pneumoniae D39).
Assay [2] has as its target T1, RodZ‐L‐FLAG^3 (Streptococcus pneumoniae D39).
T1 sequence (Q8DMX7 1-276, looked up): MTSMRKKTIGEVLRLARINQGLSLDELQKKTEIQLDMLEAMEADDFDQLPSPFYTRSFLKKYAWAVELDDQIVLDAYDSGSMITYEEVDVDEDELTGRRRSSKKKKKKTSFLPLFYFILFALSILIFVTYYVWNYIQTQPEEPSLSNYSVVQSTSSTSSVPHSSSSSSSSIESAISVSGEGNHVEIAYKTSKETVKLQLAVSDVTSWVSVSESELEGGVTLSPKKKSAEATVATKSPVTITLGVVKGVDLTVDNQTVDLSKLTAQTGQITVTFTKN

Assay [3] has as its target PBP1a‐F (Streptococcus pneumoniae D39).
In assay [4] the target is MreC‐L‐F3 (Streptococcus pneumoniae D39) (UniProt Q8DMY2).
Assay [5] addresses T2, RodZ‐FLAG (Streptococcus pneumoniae D39).
T2 sequence (Q8DMX7 1-276, looked up): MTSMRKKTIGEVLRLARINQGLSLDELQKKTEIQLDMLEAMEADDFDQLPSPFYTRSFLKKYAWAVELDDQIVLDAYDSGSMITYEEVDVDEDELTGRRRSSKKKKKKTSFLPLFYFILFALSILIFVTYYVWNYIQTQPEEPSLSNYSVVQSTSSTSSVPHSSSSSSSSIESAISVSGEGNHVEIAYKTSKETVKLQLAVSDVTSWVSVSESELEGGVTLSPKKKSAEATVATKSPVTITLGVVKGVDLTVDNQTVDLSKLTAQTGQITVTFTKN

In assay [6] the target is KhpB‐L‐F3 (Streptococcus pneumoniae D39) (UniProt Q8CY87).
The next assay deals with T3, MreC‐L‐F3 (Streptococcus pneumoniae D39, UniProt Q8DMY2 1-272).
T3 sequence (looked up): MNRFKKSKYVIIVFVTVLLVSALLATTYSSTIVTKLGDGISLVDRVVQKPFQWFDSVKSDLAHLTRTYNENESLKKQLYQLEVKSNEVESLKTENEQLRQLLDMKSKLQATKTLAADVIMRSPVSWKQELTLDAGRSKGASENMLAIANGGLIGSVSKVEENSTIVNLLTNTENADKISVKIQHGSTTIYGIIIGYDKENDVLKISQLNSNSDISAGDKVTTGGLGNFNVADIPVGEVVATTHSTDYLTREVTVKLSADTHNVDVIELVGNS

For the molecule “FtsA (from UniProt A0A0H2ZPT5 1-457) (natural protein)”, the ratio of prey protein band/background in assay [1] turned out to be 4.5.
Take “FtsW‐L‐GFP (from UniProt A0ACD7PRK7 1-409) (natural protein)”: in assay [2], the ratio of prey protein band/background was 4.5.
As for GpsB (natural protein), the ratio of prey protein band/background in assay [3] amounted to 16; in assay [1], 38; in assay [2], 51; in assay [4] it was 26; in assay [5], 24.
In the case of MpgA‐HA (natural protein), in assay [2], the ratio of prey protein band/background came to 8.6.
Regarding RodZ‐HA^3 (natural protein), the values for the ratio of prey protein band/background in assay [3] and in assay [6] were 8.6 and 1.4, respectively.
For the molecule StkP (natural protein), the ratio of prey protein band/background in assay [3] was 28; in assay [1], 34; in assay [2], 23; in assay [4], 14.
With aPBP1a (natural protein), the ratio of prey protein band/background came to 22 in assay [1], 61 in assay [2], 41 in assay [4] and 11 in assay [5].
In the case of bPBP2b (natural protein), the ratio of prey protein band/background is 13 in assay [3]; 13 in assay [1]; 63 in assay [2]; 47 in assay [4]; 26 in assay [5].
Turning to bPBP2x (natural protein), the ratio of prey protein band/background in assay [3] was 15; in assay [1], 12; in assay [2] it was 8.7; in assay [4], 10; in assay [5], 4.8.

B1: DivIVA (natural protein, UniProt Q8CWP9 1-262, looked up)
chain: MPITSLEIKDKTFGTRFRGFDPEEVDEFLDIVVRDYEDLVRANHDKNLRIKSLEERLSYFDEIKDSLSQSVLIAQDTAERVKQAAHERSNNIIHQAEQDAQRLLEEAKYKANEILRQATDNAKKVAVETEELKNKSRVFHQRLKSTIESQLAIVESSDWEDILRPTATYLQTSDEAFKEVVSEVLGEPIPAPIEEEPIDMTRQFSQAEMEELQARIEVADKELSEFEAQIKQEVETPTPVVSPQVEEEPLLIQLAQCMKNQK
Take B1: the “ratio of prey protein band/background” value came out at 4.3 with MreC‐L‐F3; 6.8 in assay [3]; 53 in assay [1]; 18 in assay [2]; 7.9 in assay [5].

B2: MreC (natural protein)
chain: MNRFKKSKYVIIVFVTVLLVSALLATTYSSTIVTKLGDGISLVDRVVQKPFQWFDSVKSDLAHLTRTYNENESLKKQLYQLEVKSNEVESLKTENEQLRQLLDMKSKLQATKTLAADVIMRSPVSWKQELTLDAGRSKGASENMLAIANGGLIGSVSKVEENSTIVNLLTNTENADKISVKIQHGSTTIYGIIIGYDKENDVLKISQLNSNSDISAGDKVTTGGLGNFNVADIPVGEVVATTHSTDYLTREVTVKLSADTHNVDVIELVGNS
On to B2, for which the ratio of prey protein band/background was 19 in assay [3], 22 in assay [1], 100 in assay [2] and 24 in assay [5].

B3: aPBP2a (natural protein, UniProt A0A0H2ZMF9 1-731, looked up)
chain: MKLDKLFEKFLSLFKKETSELEDSDSTILRRSRSDRKKLAQVGPIRKFWRRYHLTKIILILGLSAGLLVGIYLFAVAKSTNVNDLQNALKTRTLIFDREEKEAGALSGQKGTYVELTDISKNLQNAVIATEDRSFYKNDGINYGRFFLAIVTAGRSGGGSTITQQLAKNAYLSQDQTVERKAKEFFLALELSKKYSKEQILTMYLNNAYFGNGVWGVEDASKKYFGVSASEVSLDQAATLAGMLKGPELYNPLNSVEDSTNRRDTVLQNMVAAGYIDKNQETEAAEVDMTSQLHDKYEGKISDYRYPSYFDAVVNEAVSKYNLTEEEIVNNGYRIYTELDQNYQANMQIVYENTSLFPRAEDGTFAQSGSVALEPKTGGVRGVVGQVADNDKTGFRNFNYATQSKRSPGSTIKPLVVYTPAVEAGWALNKQLDNHTMQYDSYKVDNYAGIKTSREVPMYQSLAESLNLPAVATVNDLGVDKAFEAGEKFGLNMEKVDRVLGVALGSGVETNPLQMAQAYAAFANEGLMPEAHFISRIENASGQVIASHKNSQKRVIDKSVADKMTSMMLGTFTNGTGISSSPADYVMAGKTGTTEAVFNPEYTSDQWVIGYTPDVVISHWLGFPTTDENHYLAGSTSNGAAHVFRNIANTILPYTPGSTFTVENAYKQNGIAPANTKRQVQTNDNSQTDDNLSDIRGRAQSLVDEASRAISDAKIKEKAQTIWDSIVNLFR
Regarding B3, the “ratio of prey protein band/background” value in the assay with MreC‐L‐F3 stood at 20.
